Source: publication PMC6969506 (Proceedings of the National Academy of Sciences of the …, 2020)

Molecular target: the molecule itself
Assay: SEC-MALS

B1: CDTb construct lacking the C-terminal RBD2 (residues 212 to 751; CDTb∆RBD2) (domain or fragment)
chain: SDWEDEDLDTDNDNIPDSYERNGYTIKDLIAVKWEDSFAEQGYKKYVSNYLESNTAGDPYTDYEKASGSFDKAIKTEARDPLVAAYPIVGVGMEKLIISTNEHASTDQGKTVSRATTNSKTESNTAGVSVNVGYQNGFTANVTTNYSHTTDNSTAVQDSNGESWNTGLSINKGESAYINANVRYYNTGTAPMYKVTPTTNLVLDGDTLSTIKAQENQIGNNLSPGDTYPKKGLSPLALNTMDQFSSRLIPINYDQLKKLDAGKQIKLETTQVSGNFGTKNSSGQIVTEGNSWSDYISQIDSISASIILDTENESYERRVTAKNLQDPEDKTPELTIGEAIEKAFGATKKDGLLYFNDIPIDESCVELIFDDNTANKIKDSLKTLSDKKIYNVKLERGMNILIKTPTYFTNFDDYNNYPSTWSNVNTTNQDGLQGSANKLNGETKIKIPMSELKPYKRYVFSGYSKDPLTSNSIIVKIKAKEEKTDYLVPEQGYTKFSYEFETTEKDSSNIEITLIGSGTTYLDNLSITELNSTPEILDEP
B1 was tested, and the “stoichiometry N” value was 7.
